From the Immune Epitope Database (IEDB)

How the values were obtained:
HLA-A*02:01 [1] = test: IEDB peptide-MHC binding, purified MHC/competitive/fluorescence; filed as Kd, often an IC50 or EC50 that approximates it; ≥ and ≤ were set here for values at or beyond the usual limits of such assays
HLA-B*15:01 [2] = test: as above
HLA-A*01:01 = test: IEDB peptide-MHC binding, purified MHC/direct/fluorescence; filed as Kd, often an IC50 or EC50 that approximates it; ≥ and ≤ were set here for values at or beyond the usual limits of such assays
HLA-A*02:01 [3] = test: as above
HLA-A*03:01 [4] = test: as above
HLA-A*11:01 [5] = test: as above
HLA-A*29:02 = test: as above; details: source organism: Reston ebolavirus - Reston
HLA-A*31:01 = test: as above
HLA-A*69:01 [6] = test: as above
HLA-B*08:01 = test: as above; details: source organism: Reston ebolavirus - Reston
HLA-B*15:01 [7] = test: as above
HLA-B*18:01 [8] = test: as above
HLA-B*27:05 = test: as above
HLA-B*40:01 = test: as above
HLA-B*44:02 = test: as above
HLA-B*46:01 [9] = test: as above
HLA-B*57:01 [10] = test: as above
HLA-B*58:01 = test: as above
HLA-A*26:01 = test: IEDB peptide-MHC binding, purified MHC/competitive/fluorescence; filed as Kd, often an IC50 or EC50 that approximates it; ≥ and ≤ were set here for values at or beyond the usual limits of such assays
HLA-B*15:17 = test: as above
HLA-B*27:03 = test: as above
HLA-A*02:01 [11] = test: IEDB peptide-MHC binding, purified MHC/competitive/fluorescence; ≥ and ≤ were set here for values at or beyond the usual limits of such assays; details: source organism: Zaire ebolavirus
HLA-A*11:01 [12] = test: as above; details: source organism: Zaire ebolavirus
HLA-B*18:01 [13] = test: IEDB peptide-MHC binding, purified MHC/competitive/fluorescence; filed as Kd, often an IC50 or EC50 that approximates it; ≥ and ≤ were set here for values at or beyond the usual limits of such assays
HLA-B*46:01 [14] = test: as above
HLA-B*51:01 = test: as above; details: source organism: Homo sapiens
HLA-B*57:01 [15] = test: as above
HLA-A*03:01 [16] = test: as above; details: source organism: Cryptococcus neoformans var. neoformans B-3501A
HLA-B*39:01 = test: as above
HLA-B*07:02 = test: IEDB peptide-MHC binding, purified MHC/direct/fluorescence; filed as Kd, often an IC50 or EC50 that approximates it; ≥ and ≤ were set here for values at or beyond the usual limits of such assays; details: source organism: West Nile virus
HLA-B*48:01 = test: as above; details: source organism: West Nile virus
HLA-A*69:01 [17] = test: IEDB peptide-MHC binding, purified MHC/competitive/fluorescence; filed as Kd, often an IC50 or EC50 that approximates it; ≥ and ≤ were set here for values at or beyond the usual limits of such assays; details: source organism: Homo sapiens
[18] = source organism: Salmonella enterica subsp. enterica serovar Typhi
[19] = source organism: Reston ebolavirus - Reston
[20] = source organism: Reston ebolavirus
[21] = source organism: Cryptococcus neoformans var. neoformans B-3501A
[22] = source organism: West Nile virus

## KQRCALPSL
HLA-A*02:01 [1]; [18]
  Kd: 0.796 µM
HLA-B*15:01 [2]; [18]
  Kd: 0.246 µM

## FHRKKTDAL
HLA-A*01:01; [19]
  Kd: ≥ 20 µM
HLA-A*02:01 [3]; [19]
  Kd: ≥ 20 µM
HLA-A*03:01 [4]; [19]
  Kd: ≥ 20 µM
HLA-A*11:01 [5]; [19]
  Kd: ≥ 20 µM
HLA-A*29:02
  Kd: ≥ 20 µM
HLA-A*31:01; [19]
  Kd: ≥ 20 µM
HLA-A*69:01 [6]; [19]
  Kd: ≥ 20 µM
HLA-B*08:01
  Kd: 0.451 µM
HLA-B*15:01 [7]; [19]
  Kd: ≥ 20 µM
HLA-B*18:01 [8]; [19]
  Kd: ≥ 20 µM
HLA-B*27:05; [19]
  Kd: ≥ 20 µM
HLA-B*40:01; [19]
  Kd: ≥ 20 µM
HLA-B*44:02; [19]
  Kd: ≥ 20 µM
HLA-B*46:01 [9]; [19]
  Kd: ≥ 20 µM
HLA-B*57:01 [10]; [19]
  Kd: ≥ 20 µM
HLA-B*58:01; [19]
  Kd: ≥ 20 µM
HLA-A*26:01; [20]
  Kd: ≥ 20 µM
HLA-B*15:17; [20]
  Kd: ≥ 20 µM
HLA-B*27:03; [20]
  Kd: ≥ 20 µM

## VLDHILQKT
HLA-A*02:01 [11]
  IC50: 2.62 µM
HLA-A*11:01 [12]
  IC50: 55 µM

## MQDVFTFYV
HLA-A*02:01 [3]; source organism: Homo sapiens
  Kd: 0.0008 µM
HLA-A*26:01; source organism: Homo sapiens
  Kd: ≥ 20 µM
HLA-B*15:01 [2]; source organism: Homo sapiens
  Kd: ≥ 20 µM
HLA-B*15:17; source organism: Homo sapiens
  Kd: ≥ 20 µM
HLA-B*18:01 [13]; source organism: Homo sapiens
  Kd: ≥ 20 µM
HLA-B*27:03; source organism: Homo sapiens
  Kd: ≥ 20 µM
HLA-B*46:01 [14]; source organism: Homo sapiens
  Kd: ≥ 20 µM
HLA-B*51:01
  Kd: ≥ 20 µM
HLA-B*57:01 [15]; source organism: Homo sapiens
  Kd: ≥ 20 µM

## AIDDFCLFA
HLA-A*02:01 [1]; [21]
  Kd: 0.0135 µM
HLA-A*03:01 [16]
  Kd: ≥ 20 µM
HLA-A*26:01; [21]
  Kd: ≥ 20 µM
HLA-B*15:01 [2]; [21]
  Kd: ≥ 20 µM
HLA-B*18:01 [13]; [21]
  Kd: ≥ 20 µM
HLA-B*27:03; [21]
  Kd: ≥ 20 µM
HLA-B*39:01; [21]
  Kd: ≥ 20 µM
HLA-B*46:01 [14]; [21]
  Kd: ≥ 20 µM
HLA-B*57:01 [15]; [21]
  Kd: ≥ 20 µM

## VHREWFMDL
HLA-A*01:01; [22]
  Kd: ≥ 20 µM
HLA-A*02:01 [3]; [22]
  Kd: ≥ 20 µM
HLA-A*03:01 [4]; [22]
  Kd: ≥ 20 µM
HLA-A*11:01 [5]; [22]
  Kd: ≥ 20 µM
HLA-A*31:01; [22]
  Kd: ≥ 20 µM
HLA-A*69:01 [6]; [22]
  Kd: ≥ 20 µM
HLA-B*07:02
  Kd: ≥ 20 µM
HLA-B*15:01 [7]; [22]
  Kd: ≥ 20 µM
HLA-B*18:01 [8]; [22]
  Kd: ≥ 20 µM
HLA-B*27:05; [22]
  Kd: ≥ 20 µM
HLA-B*40:01; [22]
  Kd: ≥ 20 µM
HLA-B*44:02; [22]
  Kd: ≥ 20 µM
HLA-B*46:01 [9]; [22]
  Kd: ≥ 20 µM
HLA-B*48:01
  Kd: ≥ 20 µM
HLA-B*57:01 [10]; [22]
  Kd: ≥ 20 µM
HLA-B*58:01; [22]
  Kd: ≥ 20 µM
HLA-B*39:01; [22]
  Kd: 1.48 µM

## FLQQRKPPL
HLA-A*02:01 [3]; source organism: Mus musculus
  Kd: 0.432 µM
HLA-A*26:01; source organism: Homo sapiens
  Kd: ≥ 20 µM
HLA-A*69:01 [17]
  Kd: ≥ 20 µM
HLA-B*15:01 [2]; source organism: Homo sapiens
  Kd: ≥ 20 µM
HLA-B*15:17; source organism: Homo sapiens
  Kd: ≥ 20 µM
HLA-B*18:01 [13]; source organism: Homo sapiens
  Kd: ≥ 20 µM
HLA-B*27:03; source organism: Homo sapiens
  Kd: ≥ 20 µM
HLA-B*39:01; source organism: Homo sapiens
  Kd: ≥ 20 µM
HLA-B*46:01 [14]; source organism: Homo sapiens
  Kd: ≥ 20 µM
HLA-B*51:01
  Kd: ≥ 20 µM
HLA-B*57:01 [15]; source organism: Homo sapiens
  Kd: ≥ 20 µM
